From US20050031631A1 come the findings set out here.

The target of assay [1] is human IgE from a pool of sera (n=10) of Pj monosensitive allergic patients (human). The assay is described as follows: ELISA inhibition: pool of sera (n=10, 1:5) preincubated with the protein (0.25-20 ug/ml), then on wells coated with rParj1; bound IgE detected.
Assay [2] addresses human IgE of ten monosensitive Pj allergic patients (single sera / the patients themselves) (human). The assay is described as follows: cell-based or functional assay.

Residue numbers refer to the chain shown, from its start.

B1: PjB mutant of Par j 1.0102 (Cys50->Ser and Cys52->Ser) (protein, not shown: small tags and cut ends)
chain: QETCGTMVRALMPCLPFVQGKEKEPSKGCCSGAKRLDGETKTGPQRVHASESIQTAMKTYSDIDGKLVSEVPKHCGIVDSKLPPIDVNMDCKTVGVVPRQPQLPVSLRHGPVTGPSDPAHKARLERPQIRVPPPAPEKA
For the molecule B1, in assay [1], the % inhibition worked out at 85%. In assay [2], this molecule displayed a skin prick test, patients with Type I immediate hypersensitivity (out of 10 patients) of 9.

B2: PjA mutant of Par j 1.0102 (Cys29->Ser and Cys30->Ser) (protein, not shown: small tags and cut ends)
chain: B1 chain with C29S, C30S, S50C, S52C
Take B2: the % inhibition in assay [1] amounted to 16%. The skin prick test, patients with a positive reaction (out of 10 patients) in assay [2] was 3.

B3: PjC mutant of Par j 1.0102 (Cys4->Ser, Cys29->Ser and Cys30->Ser) (protein, not shown: small tags and cut ends)
chain: B1 chain with C4S, C29S, C30S, S50C, S52C
In assay [1], B3 had a % inhibition of 14%.

B4: recombinant Par j 1.0102, major allergen of Parietaria judaica (wild type) (protein, not shown: small tags and cut ends)
chain: B1 chain with S50C, S52C
Molecule B4 registered a % inhibition in assay [1] of 95%.

B5: PjD mutant of Par j 1.0102 (Cys29->Ser, Cys30->Ser, Cys50->Ser and Cys52->Ser) (protein, not shown: small tags and cut ends)
chain: B1 chain with C29S, C30S
Turning to B5, the % inhibition in assay [1] came out at 15%.

For orientation: % inhibition means the drop in the measured response relative to a control, in per cent. Read a low % inhibition as a response near the control.
